Experimental data reported in publication PMC4570711.

Biological target: human TrkA receptor (human) (UniProt P04629)
UniProt P04629, sequence (P04629 33-796): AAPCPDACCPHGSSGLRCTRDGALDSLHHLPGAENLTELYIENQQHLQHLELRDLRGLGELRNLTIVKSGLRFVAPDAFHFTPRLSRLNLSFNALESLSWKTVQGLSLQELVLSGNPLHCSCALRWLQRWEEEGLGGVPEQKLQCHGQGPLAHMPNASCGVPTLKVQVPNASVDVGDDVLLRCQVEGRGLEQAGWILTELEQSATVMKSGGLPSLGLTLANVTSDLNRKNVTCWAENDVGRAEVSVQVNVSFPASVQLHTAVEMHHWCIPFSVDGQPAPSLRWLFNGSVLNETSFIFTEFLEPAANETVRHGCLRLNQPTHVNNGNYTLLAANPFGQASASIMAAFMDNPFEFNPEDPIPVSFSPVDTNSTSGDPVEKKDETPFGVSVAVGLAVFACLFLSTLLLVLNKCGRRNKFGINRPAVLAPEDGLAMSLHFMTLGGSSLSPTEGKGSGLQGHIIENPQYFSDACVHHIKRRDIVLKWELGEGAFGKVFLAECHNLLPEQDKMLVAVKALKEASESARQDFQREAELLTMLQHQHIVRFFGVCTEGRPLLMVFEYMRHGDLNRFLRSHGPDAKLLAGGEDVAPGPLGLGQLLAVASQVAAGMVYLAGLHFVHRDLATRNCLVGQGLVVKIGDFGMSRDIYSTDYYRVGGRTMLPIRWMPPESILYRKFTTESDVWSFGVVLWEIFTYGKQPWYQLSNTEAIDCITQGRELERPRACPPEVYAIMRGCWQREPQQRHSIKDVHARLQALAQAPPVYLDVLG

Row | TF1 cell proliferation, C50 (concentration of hNGF giving half of the maximum effect; 0.1–200 ng/ml) [ng/mL] | Substance
1 | 4.3 | human Nerve Growth Factor P61S mutant (ligand)
2 | 10.9 | human Nerve Growth Factor R100E mutant ("painless" hNGF) (from UniProt P01138 122-241) (ligand)
3 | 8.1 | human Nerve Growth Factor P61S R100E double mutant (ligand)
